The RNAGym collection of RNA variant scans (doi:10.1073/pnas.2313332121)
Fewer inactive variants are shown than the library holds.

B1: TPR 5TU (parent)
chain: GGAUCUUCUCGAUCUAACAAAAAAGACAAAUCUGCCACAAAGCUUGAGAGCAUCUUCGGAUGCAGAGGCGGCAGCCUUCGGUGGCGCGAUAGCGCCAACGUUCUCAACUAUGACACGCAAAACGCGUGCUCCGUUGAAUGGAGUUUAUCAUG

Variants of: B1
Experiment: polymerase ribozyme fitness, log enrichment relative to wild type (log ratio); higher = more active; in vitro selection for triplet polymerase activity
How it was run: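 Each subunit of a heterodimeric triplet polymerase ribozyme was represented by a PCR-built, transcribed mutant library that underwent triplicate single-round in vitro selection with frozen incubation at −7 °C. Extended constructs were recovered by gel excision, streptavidin-bead capture and RT-PCR, and Illumina sequencing of input and output libraries kept genotypes with ≥10 input reads and ≥1 read per output. Fitness is the logarithm of genotype enrichment relative to wild-type enrichment, from inverse-variance-weighted replicate averages, with a logarithm base of 2.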

| Variant | polymerase ribozyme fitness (log ratio) |
| --- | --- |
| U33G C72U C95A G126U A137G | ≤ -4.2 |
| G58A C85G G100U U144A | ≤ -4.2 |
| C8U G83U A97G A142U | -4.17 |
| A30U U55G C57A C93U | -4.13 |
| U7G G11A C18A A37G G50A C85U G112U | ≤ -4.2 |
| G84U U102G | -4.16 |
| G59U G124C U134G U146A | -3.17 |
| A28U C54G C72U | ≤ -4.2 |
| C32U U61C | -3.52 |
| A3U U31G A40U U53A C85U C95U | -3.06 |
| G88A G94A C99G C103G U104A A107G | ≤ -4.2 |
| A30G C76U | -3.9 |
| C14G U56G C57U C63U C72U U151G | ≤ -4.2 |
| G83A A97G | -0.594 |
| U53C G84A C95U | -0.536 |
| G42U A106C | -4.17 |
| A22U C95A C96A C99U | -1.54 |
| G48A G84A A107C C118G | ≤ -4.2 |
| G94A A137C | -3.2 |
| A60U U130G G143C | ≤ -4.2 |
| A91C A97G U109C A142C | ≤ -4.2 |

| Variant | polymerase ribozyme fitness (log ratio) |
| --- | --- |
| C36A A39C U56C C87U U144G | ≤ -4.2 |
| A19U G48U | -0.613 |
| C14A A17U A40U C57G G84U C96A A121C | ≤ -4.2 |
| C10A G81C | ≤ -4.2 |
| A49U U56G C85U G86U U102C | ≤ -4.2 |
| A17G G84U G126A | -1.39 |
| U53A C75U G88C | ≤ -4.2 |
| U13C U45G G81A C85U C118U G126A | ≤ -4.2 |
| A17C A47C C95U C116U | -0.195 |
| C18U A40C C57A G126U | -0.291 |
| G80C G83U C118A G141C | -3.94 |
| A16G A23U C72A C87A C93U G126A | ≤ -4.2 |
| G80A G81A A120C | -0.393 |
| A16U C32A C35G A47C G58C G68A G70U C96G G126C | ≤ -4.2 |
| A23U A26C A30U U56A A60C G86U G88C C95G G124U A137U U148C | ≤ -4.2 |
| G50C G81A G86U C87A G136U | ≤ -4.2 |
| C72A U148A | ≤ -4.2 |
| U55A G143C | -2.99 |
| A41G C57G C76U G94A A110G C116G U139G | -4.11 |
| A22U U148A | -2.76 |
| C96G A121C C129U | -0.0949 |

| Variant | polymerase ribozyme fitness (log ratio) |
| --- | --- |
| C72U C93G A106G A121U | -2.98 |
| U6C U55G C132A A138G | ≤ -4.2 |
| U45A A52G U82G A115G G136U G141A U151G | ≤ -4.2 |
| A60G U90G U145A | ≤ -4.2 |
| C5A A21U G50A C85A C96A C118G G133C C149U | ≤ -4.2 |
| A17C A29C A66U G67A A91G C96U A115G C116A | ≤ -4.2 |
| A142G A147U | -0.49 |
| G42A A49C C69G A137U | ≤ -4.2 |
| A52C U55A U82C | -2.36 |
| A19U C76U C131U | 0.231 |
| U9A C125G | ≤ -4.2 |
| G84A U102A | -1.01 |
| G84U U101G G126C | -1.67 |
| G42C C54G A91U G124A C131G | ≤ -4.2 |
| C87U A97U | -2.25 |
| C99G C114U | -2.38 |
| G128U U144C | -3.96 |
| C8A A16C C18G A49C C95U A98G A142U | ≤ -4.2 |
| U77G G86U C93G C96A C118G U145G | ≤ -4.2 |
| A19G A40U C57A U61A G100U G136U G141C | ≤ -4.2 |
| C76G G88C | ≤ -4.2 |

| Variant | polymerase ribozyme fitness (log ratio) |
| --- | --- |
| A37C C96G A106G | -0.258 |
| C51U C96A C105A C118U | -2.94 |
| U55G A73U | -2.35 |
| G71U U144G | -1.84 |
| C14U A17U A24G A41C C51U U56A C93A A115C | ≤ -4.2 |
| A26C G84C C108G G133U | ≤ -4.2 |
| U56A U61G A91C U127C U148C A150U | ≤ -4.2 |
| A47G U55G | 0.325 |
| A39U A41C A98G | -2.72 |
| G86U U90G C103A A119C A121C A138C | ≤ -4.2 |
| G42C U45A G48U A49C C75U C118G U144C | ≤ -4.2 |
| C5U A16U A26U U44A A52G G92C | ≤ -4.2 |
| U13A A26U C76U U146A | -3.35 |
| U82G C118G | -1.09 |
| U77C G84U A106C | ≤ -4.2 |
| C32A C69G A98U | -1.51 |
| G83A G117C U145G | -1.38 |
| C32U A40G C105A | -3.89 |
| C8A G50U | -3.79 |
| A47U G48A U146G | -2.73 |
| C14G A20G A24U C72G U82G A97G U101C C103G G136A | ≤ -4.2 |
